In patent US20090104196A1 (UNIVERSITAETSKLINIKUM FREIBURG, published 2009):

Target: T1, LSD1 1-174 (N-terminus of LSD1), labelled (UniProt O60341 1-174)
T1 construct: Labelled LSD1 deletion mutant used in the GST pull-down; not shown: Flag tag of the CMX-Flag vector
Test: GST pull-down, labelled LSD1 mutant
Protocol: GST, GST-Nix1, GST-ROR[…], and GST ERβ-NTD proteins were used as control. (NTD; N-terminal domain, DBD; DNA-binding domain, LBD; ligand-binding domain).
GST pull-down assays were performed with equal amounts of GST or GST fusion proteins as described¹⁷ using buffer containing either 150 mM KCl, 0.15% NP40 (FIG. 1b) or 600 mM KCl, 0.3% NP40 (FIG. 7a). Pull-downs with sepharose coupled histone H3 tail were performed as described²⁷ in 20 mM Tris pH 8.5, 150 mM NaCl, 0.5% NP40.10% of the in vitro translated proteins were loaded as input.

binding result: no binding
B1: GST-AR-DBD (GST fused to the DNA-binding domain of the androgen receptor), bacterially expressed (other, UniProt P10275 560-632, looked up)
chain: CLICGDEASGCHYGALTCGSCKVFFKRAAEGKQKYLCASRNDCTIDKFRRKNCPSCRLRKCYEAGMTLGARKL
notes: also called GST-AR fusion protein; not shown: glutathione S-transferase (GST) fusion partner
